Test results as given in patent publication US20220204580A1 (AstraZeneca / MedImmune, published 2022).
Numbered stars: 1 amine (or outer) side, 2 acyl side, 3 side chain; on linkers, the order of the positions; unused ones are H or OH. Bridge positions count the residues as written; N and C are the ends. Square brackets hold non-standard residues; d marks the D form. Side chains are listed from the residue outwards. Ends that are not written are not given here. * marks the point of attachment. C18 diacid = O=C(O)CCCCCCCCCCCCCCCCC(=O)*; γGlu = O=C(O)[C@H](CCC(=O)[*:2])N[*:1]; AEEA = NCCOCCOCC(=O)O; Aib = CC(C)(N)C(=O)O

T1: human calcitonin receptor (human, UniProt P30988 25-474)
T1 sequence (looked up): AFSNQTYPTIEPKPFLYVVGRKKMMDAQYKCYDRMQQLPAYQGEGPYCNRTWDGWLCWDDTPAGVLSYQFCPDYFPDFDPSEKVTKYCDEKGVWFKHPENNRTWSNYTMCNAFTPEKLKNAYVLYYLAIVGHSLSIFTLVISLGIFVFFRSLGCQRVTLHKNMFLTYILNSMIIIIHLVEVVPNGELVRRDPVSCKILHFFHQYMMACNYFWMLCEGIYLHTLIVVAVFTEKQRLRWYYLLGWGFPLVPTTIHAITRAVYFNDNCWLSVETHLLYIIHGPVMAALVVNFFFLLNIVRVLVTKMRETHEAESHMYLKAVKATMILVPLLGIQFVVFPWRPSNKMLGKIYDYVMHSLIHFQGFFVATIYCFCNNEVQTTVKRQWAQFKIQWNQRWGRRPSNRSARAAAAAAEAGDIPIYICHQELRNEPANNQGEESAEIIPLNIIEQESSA

T2: human amylin receptor (calcitonin receptor co-expressed with receptor activity modifying protein, RAMP3) (human, UniProt P30988 25-474; O60896 24-148)
T2 sequence (looked up) 1: T1 sequence (looked up)
T2 sequence (looked up) 2: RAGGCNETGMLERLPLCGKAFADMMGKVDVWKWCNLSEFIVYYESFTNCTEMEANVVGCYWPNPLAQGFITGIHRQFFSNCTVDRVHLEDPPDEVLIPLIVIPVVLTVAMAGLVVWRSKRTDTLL

B1: Peptide 53 (SEQ ID NO: 53) (peptide)
peptide: K([γGlu-C18 diacid])KCNTATCATQRLANFLSHSS[Aib]NFGPILPPTPVGSNTY-NH2
modifications: disulfide 3-8; N-terminus assumed
SMILES: CC[C@H](C)[C@H](NC(=O)[C@@H]1CCCN1C(=O)CNC(=O)[C@H](Cc1ccccc1)NC(=O)[C@H](CC(N)=O)NC(=O)C(C)(C)NC(=O)[C@H](CO)NC(=O)[C@H](CO)NC(=O)[C@H](Cc1c[nH]cn1)NC(=O)[C@H](CO)NC(=O)[C@H](CC(C)C)NC(=O)[C@H](Cc1ccccc1)NC(=O)[C@H](CC(N)=O)NC(=O)[C@H](C)NC(=O)[C@H](CC(C)C)NC(=O)[C@H](CCCNC(=N)N)NC(=O)[C@H](CCC(N)=O)NC(=O)[C@@H](NC(=O)[C@H](C)NC(=O)[C@@H]1CSSC[C@H](NC(=O)[C@H](CCCCN)NC(=O)[C@@H](N)CCCCNC(=O)CC[C@H](NC(=O)CCCCCCCCCCCCCCCCC(=O)O)C(=O)O)C(=O)N[C@@H](CC(N)=O)C(=O)N[C@@H]([C@@H](C)O)C(=O)N[C@@H](C)C(=O)N[C@@H]([C@@H](C)O)C(=O)N1)[C@@H](C)O)C(=O)N[C@@H](CC(C)C)C(=O)N1CCC[C@H]1C(=O)N1CCC[C@H]1C(=O)N[C@H](C(=O)N1CCC[C@H]1C(=O)N[C@H](C(=O)NCC(=O)N[C@@H](CO)C(=O)N[C@@H](CC(N)=O)C(=O)N[C@H](C(=O)N[C@@H](Cc1ccc(O)cc1)C(N)=O)[C@@H](C)O)C(C)C)[C@@H](C)O
B2: Peptide 54 (SEQ ID NO: 54) (peptide)
peptide: K([γGlu-C18 diacid])KCNTATCATQRLANFLSHSS[Aib]NFGPILPPTNVPSNTY-NH2
modifications: disulfide 3-8; N-terminus assumed
SMILES: CC[C@H](C)[C@H](NC(=O)[C@@H]1CCCN1C(=O)CNC(=O)[C@H](Cc1ccccc1)NC(=O)[C@H](CC(N)=O)NC(=O)C(C)(C)NC(=O)[C@H](CO)NC(=O)[C@H](CO)NC(=O)[C@H](Cc1c[nH]cn1)NC(=O)[C@H](CO)NC(=O)[C@H](CC(C)C)NC(=O)[C@H](Cc1ccccc1)NC(=O)[C@H](CC(N)=O)NC(=O)[C@H](C)NC(=O)[C@H](CC(C)C)NC(=O)[C@H](CCCNC(=N)N)NC(=O)[C@H](CCC(N)=O)NC(=O)[C@@H](NC(=O)[C@H](C)NC(=O)[C@@H]1CSSC[C@H](NC(=O)[C@H](CCCCN)NC(=O)[C@@H](N)CCCCNC(=O)CC[C@H](NC(=O)CCCCCCCCCCCCCCCCC(=O)O)C(=O)O)C(=O)N[C@@H](CC(N)=O)C(=O)N[C@@H]([C@@H](C)O)C(=O)N[C@@H](C)C(=O)N[C@@H]([C@@H](C)O)C(=O)N1)[C@@H](C)O)C(=O)N[C@@H](CC(C)C)C(=O)N1CCC[C@H]1C(=O)N1CCC[C@H]1C(=O)N[C@H](C(=O)N[C@@H](CC(N)=O)C(=O)N[C@H](C(=O)N1CCC[C@H]1C(=O)N[C@@H](CO)C(=O)N[C@@H](CC(N)=O)C(=O)N[C@H](C(=O)N[C@@H](Cc1ccc(O)cc1)C(N)=O)[C@@H](C)O)C(C)C)[C@@H](C)O

Target: T1, human calcitonin receptor
Assay: cell-based or functional assay

| Binder | EC50 (cAMP production) [nM] |
| --- | --- |
| K([AEEA-AEEA-γGlu-C18 diacid])GGGKCNTATCATQRLANFLVHSSNNFGPILPPTNVGSNTY-NH2 (disulfide 6-11) [Peptide 7 (SEQ ID NO: 7)] | 2.16 |
| B1 | 0.235 |
| B2 | 1.51 |

Target: T2, human amylin receptor (calcitonin …)
Assay: cell-based or functional assay

| Binder | EC50 (cAMP production) [nM] | Ratio (EC50 hCTR / EC50 hAMYR3) |
| --- | --- | --- |
| K([AEEA-AEEA-γGlu-C18 diacid])GGGKCNTATCATQRLANFLVHSSNNFGPILPPTNVGSNTY-NH2 (disulfide 6-11) [Peptide 7 (SEQ ID NO: 7)] | 0.173 | 12 |
| B1 | 0.098 | 2 |
| B2 | 7.59 | 0.2 |
